From paper PMC6522968

Target: Glu387 (UniProt position 387, YMYVTENGIAD)
Assay: kinetics
Details: 65 °C; 50.0 mM sodium citrate (pH 3.0–5.6), sodium phosphate (pH 6.0–8.0) and KCl/borate (pH 8.0–10.0); enzyme-substrate complex with 4Np-Glc, as described by the authors; folded, active enzyme

| Substance | pKa |
| --- | --- |
| beta-glycosidase (Ssβ-gly) (Sulfolobus solfataricus (Saccharolobus solfataricus)) | 3.41 ± 0.13 |
| beta-glycosidase (Ssβ-gly) H150A mutant (A150) (Sulfolobus solfataricus (Saccharolobus solfataricus); H150A) | 5.29 ± 0.18 |
